± gives the uncertainty stated by the source.
Assay: self-splicing fitness, log relative to wild type (ln ratio); higher = more splicing; Tetrahymena group I intron in knt gene, E. coli kanamycin selection, DiMSum; sequences stand for … in CUCUCU…GGAGGGAAAAGUUAUCAGGCAUGCACCUGGUAGCUAGUCUUUAAACCAAUAGAUUGCAUCGGUUUAAAAGGCAAGACCGUCAAAUUGCGGGAAAGGGGUCAACAGCCGUUCAGUACCAAGUCUCAGGGGAAACUUUGAGAUGGCCUUGCAAAGGGUAUGGUAAUAAGCUGACGGACAUGGUCCUAACCACGCAGCCAAGUCCUAAGUCAACAGAUCUUCUGUUGAUAUGGAUGCAGUUCACAGACUAAAUGUCGGUCGGGGAAGAUGUAUUCUUCUCAUAAGAUAUAGUCGGACCUCUCCUUAAUGGGAGCUAGCGGAUGAAGUGAUGCAACACUGGAGCCGCUGGGAACUAAUUUGUAUGCGAAAGUAUAUUGAUUAGUUUUGGAGUACUCGUGGUCG
Outline: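 A randomised library covering all eight P1ex-region intron nucleotides was built with the intron in the knt kanamycin-resistance gene on pET-22b(+) and held in E. coli BL21(DE3). Cells were grown overnight at 37°C or 30°C on LB agar, with or without 25 μg/mL kanamycin, plus 100 μg/mL carbenicillin, 50 μM IPTG and 0.2% rhamnose, and pooled colonies were amplicon-sequenced on an Illumina HiSeq 2500. DiMSum fitness is the error-weighted combination of wild-type-normalised replicate fold changes, kanamycin versus none.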

CGAUAGCAAUAUUACGAAGU
self-splicing fitness (ln) (30 °C): -2.89 ± 0.18
self-splicing fitness (ln) (37 °C): -2.58 ± 0.23

CGAUAGCAAUAUUACGACCU
self-splicing fitness (ln) (30 °C): -1.35 ± 0.12
self-splicing fitness (ln) (37 °C): 0.288 ± 0.14

CGAUAGCAAUAUUACGCAAU
self-splicing fitness (ln) (30 °C): -3.43 ± 0.27
self-splicing fitness (ln) (37 °C): -2.26 ± 0.25

CGAUAGCAAUAUUACGCAUA
self-splicing fitness (ln) (30 °C): -3.25 ± 0.28
self-splicing fitness (ln) (37 °C): -1.8 ± 0.24

CGAUAGCAAUAUUACGCCGA
self-splicing fitness (ln) (30 °C): -1.92 ± 0.21
self-splicing fitness (ln) (37 °C): -2.05 ± 0.28

CGAUAGCAAUAUUACGCGGA
self-splicing fitness (ln) (30 °C): -2.21 ± 0.22
self-splicing fitness (ln) (37 °C): -0.662 ± 0.15

CGAUAGCAAUAUUACGGCGU
self-splicing fitness (ln) (30 °C): -0.866 ± 0.085
self-splicing fitness (ln) (37 °C): 0.51 ± 0.12

CGAUAGCAAUAUUACGGGCA
self-splicing fitness (ln) (30 °C): -2.06 ± 0.14
self-splicing fitness (ln) (37 °C): -1.53 ± 0.15

CGAUAGCAAUAUUACGGGGG
self-splicing fitness (ln) (30 °C): -3.7 ± 0.3
self-splicing fitness (ln) (37 °C): -1.49 ± 0.16

CGAUAGCAAUAUUACGGUCA
self-splicing fitness (ln) (30 °C): -0.212 ± 0.057
self-splicing fitness (ln) (37 °C): 0.228 ± 0.065

CGAUAGCAAUAUUACGGUUA
self-splicing fitness (ln) (30 °C): -0.777 ± 0.17
self-splicing fitness (ln) (37 °C): -0.253 ± 0.13

CGAUAGCAAUAUUACGGUUG
self-splicing fitness (ln) (30 °C): -1.9 ± 0.15
self-splicing fitness (ln) (37 °C): -0.9 ± 0.13

CGAUAGCAAUAUUACGUCCG
self-splicing fitness (ln) (30 °C): -1.4 ± 0.1
self-splicing fitness (ln) (37 °C): -0.5 ± 0.12

CGAUAGCAAUAUUACGUGUU
self-splicing fitness (ln) (30 °C): -4.25 ± 0.14
self-splicing fitness (ln) (37 °C): -2.3 ± 0.1

CGCAAGCAAUAUUACGAAUU
self-splicing fitness (ln) (30 °C): -2.55 ± 0.2
self-splicing fitness (ln) (37 °C): -3.57 ± 0.46

CGCAAGCAAUAUUACGACUA
self-splicing fitness (ln) (30 °C): -1.47 ± 0.22
self-splicing fitness (ln) (37 °C): -0.703 ± 0.2

CGCAAGCAAUAUUACGAGGA
self-splicing fitness (ln) (30 °C): -3.23 ± 0.24
self-splicing fitness (ln) (37 °C): -2.81 ± 0.29

CGCAAGCAAUAUUACGAGGC
self-splicing fitness (ln) (30 °C): -2.71 ± 0.2
self-splicing fitness (ln) (37 °C): -2.84 ± 0.29

CGCAAGCAAUAUUACGAGUA
self-splicing fitness (ln) (30 °C): -2.53 ± 0.14
self-splicing fitness (ln) (37 °C): -0.869 ± 0.096

CGCAAGCAAUAUUACGAUAA
self-splicing fitness (ln) (30 °C): -3.03 ± 0.19
self-splicing fitness (ln) (37 °C): -1.51 ± 0.23

CGCAAGCAAUAUUACGCCGC
self-splicing fitness (ln) (37 °C): -1.24 ± 0.49

CGCAAGCAAUAUUACGGACG
self-splicing fitness (ln) (30 °C): -1.45 ± 0.1
self-splicing fitness (ln) (37 °C): -0.532 ± 0.11

CGCAAGCAAUAUUACGGACU
self-splicing fitness (ln) (30 °C): -1.39 ± 0.08
self-splicing fitness (ln) (37 °C): 0.158 ± 0.082

CGCAAGCAAUAUUACGGAGU
self-splicing fitness (ln) (30 °C): -3.16 ± 0.2
self-splicing fitness (ln) (37 °C): -1.68 ± 0.18

CGCAAGCAAUAUUACGGGCA
self-splicing fitness (ln) (30 °C): 0.0951 ± 0.064
self-splicing fitness (ln) (37 °C): -0.199 ± 0.075

CGCAAGCAAUAUUACGGGCU
self-splicing fitness (ln) (30 °C): -1.68 ± 0.12
self-splicing fitness (ln) (37 °C): -0.144 ± 0.16

CGCAAGCAAUAUUACGGGUA
self-splicing fitness (ln) (30 °C): -1.68 ± 0.086
self-splicing fitness (ln) (37 °C): -0.81 ± 0.09

CGCAAGCAAUAUUACGGUUG
self-splicing fitness (ln) (30 °C): -2.25 ± 0.098
self-splicing fitness (ln) (37 °C): -1.18 ± 0.096

CGCAAGCAAUAUUACGUAGG
self-splicing fitness (ln) (30 °C): -1.24 ± 0.057
self-splicing fitness (ln) (37 °C): -0.509 ± 0.075

CGCAAGCAAUAUUACGUCCC
self-splicing fitness (ln) (30 °C): -2.84 ± 0.34
self-splicing fitness (ln) (37 °C): -0.615 ± 0.26

CGCCAGCAAUAUUACGAAAA
self-splicing fitness (ln) (30 °C): -3.4 ± 0.29
self-splicing fitness (ln) (37 °C): -2.7 ± 0.2

CGCCAGCAAUAUUACGACAG
self-splicing fitness (ln) (30 °C): -0.00427 ± 0.052
self-splicing fitness (ln) (37 °C): 0.18 ± 0.067

CGCCAGCAAUAUUACGACUC
self-splicing fitness (ln) (30 °C): -3.02 ± 0.22
self-splicing fitness (ln) (37 °C): -2.21 ± 0.25

CGCCAGCAAUAUUACGACUG
self-splicing fitness (ln) (30 °C): -0.729 ± 0.13
self-splicing fitness (ln) (37 °C): 0.335 ± 0.15

CGCCAGCAAUAUUACGAGGU
self-splicing fitness (ln) (30 °C): -4.39 ± 0.28
self-splicing fitness (ln) (37 °C): -1.89 ± 0.18

CGCCAGCAAUAUUACGAUCG
self-splicing fitness (ln) (30 °C): -0.715 ± 0.063
self-splicing fitness (ln) (37 °C): -0.476 ± 0.092

CGCCAGCAAUAUUACGCAGU
self-splicing fitness (ln) (30 °C): -4.04 ± 0.18
self-splicing fitness (ln) (37 °C): -2.18 ± 0.16

From the supplement of paper PMC7877785
